Sequences and labels used below:
B1: WSB1 (parent)
chain: DLKDDGNMMKVLRGHQNWVYSCAF

Our source for the protein stability index values is the supplement of paper PMC10567573.
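Also: lentivirally expressed fusions sorted by FACS into six bins by GFP to DsRed ratio, PSI derived from sequencing read proportions per bin multiplied by bin number.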

Variants of B1 are the subject of the data set. Briefly: protein stability index of a GFP-peptide fusion (GPS, HEK-293T) (PSI 1-6); higher = more stable. Conditions: c terminus: a fixed tail appended.
As to DLKDDGMMMKVLRGHQNWVYSCAF [N7M], the protein stability index stood at 3.16.

With DLKDDGAMMKVLRGHQNWVYSCAF [N7A], the protein stability index was determined as 1.09.

For DLKDDGVMMKVLRGHQNWVYSCAF [N7V], the protein stability index is 2.03.

Turning to DLKDDGGMMKVLRGHQNWVYSCAF [N7G], the protein stability index was 2.54.

As for DLKDDGCMMKVLRGHQNWVYSCAF [N7C], the protein stability index was determined as 1.83.

Turning to DLKDDGDMMKVLRGHQNWVYSCAF [N7D], the protein stability index was 2.58.

Take DLKDDGSMMKVLRGHQNWVYSCAF [N7S]: the protein stability index turned out to be 1.9.

For DLKDDGPMMKVLRGHQNWVYSCAF [N7P], the protein stability index was 2.54.

For the variant DLKDDGEMMKVLRGHQNWVYSCAF [N7E], the protein stability index amounted to 1.66.

DLKDDGTMMKVLRGHQNWVYSCAF [N7T]: the protein stability index is 1.47.

As for DLKDDGKMMKVLRGHQNWVYSCAF [N7K], the protein stability index stood at 2.

For DLKDDGQMMKVLRGHQNWVYSCAF [N7Q], the protein stability index came out at 1.76.

Take DLKDDGWMMKVLRGHQNWVYSCAF [N7W]: the protein stability index turned out to be 3.11.

For the variant DLKDDGHMMKVLRGHQNWVYSCAF [N7H], the protein stability index is 1.62.

In the case of DLKDDGIMMKVLRGHQNWVYSCAF [N7I], the protein stability index was 3.63.

DLKDDGRMMKVLRGHQNWVYSCAF [N7R]: the protein stability index came to 1.71.

For the variant DLKDDGNIMKVLRGHQNWVYSCAF [M8I], the protein stability index worked out at 2.03.

For the variant DLKDDGNKMKVLRGHQNWVYSCAF [M8K], the protein stability index turned out to be 2.15.

As for DLKDDGNHMKVLRGHQNWVYSCAF [M8H], the protein stability index worked out at 2.34.

With DLKDDGNWMKVLRGHQNWVYSCAF [M8W], the protein stability index was found to be 1.09.

Consider DLKDDGNYMKVLRGHQNWVYSCAF [M8Y], for which the protein stability index was 1.39.

DLKDDGNDMKVLRGHQNWVYSCAF [M8D]: the protein stability index was 2.5.

For the variant DLKDDGNQMKVLRGHQNWVYSCAF [M8Q], the protein stability index turned out to be 2.26.

DLKDDGNSMKVLRGHQNWVYSCAF [M8S]: the protein stability index came to 2.02.

For DLKDDGNVMKVLRGHQNWVYSCAF [M8V], the protein stability index was 1.54.

Regarding DLKDDGNNMKVLRGHQNWVYSCAF [M8N], the protein stability index stood at 2.29.

For the variant DLKDDGNRMKVLRGHQNWVYSCAF [M8R], the protein stability index is 2.35.

Turning to DLKDDGNCMKVLRGHQNWVYSCAF [M8C], the protein stability index was found to be 1.38.

Turning to DLKDDGNGMKVLRGHQNWVYSCAF [M8G], the protein stability index came to 2.55.

As for DLKDDGNTMKVLRGHQNWVYSCAF [M8T], the protein stability index is 1.54.

For the variant DLKDDGNPMKVLRGHQNWVYSCAF [M8P], the protein stability index came to 2.44.

Regarding DLKDDGNAMKVLRGHQNWVYSCAF [M8A], the protein stability index was determined as 1.83.

On to DLKDDGNLMKVLRGHQNWVYSCAF [M8L], for which the protein stability index is 1.15.

Regarding DLKDDGNMMKVLRTHQNWVYSCAF [G14T], the protein stability index was 2.39.

As for DLKDDGNMMKVLRDHQNWVYSCAF [G14D], the protein stability index amounted to 1.91.

Consider DLKDDGNMMKVLRYHQNWVYSCAF [G14Y], for which the protein stability index worked out at 2.35.

Consider DLKDDGNMMKVLRQHQNWVYSCAF [G14Q], for which the protein stability index turned out to be 2.31.

As to DLKDDGNMMKVLRLHQNWVYSCAF [G14L], the protein stability index was 2.05.

As for DLKDDGNMMKVLREHQNWVYSCAF [G14E], the protein stability index was 1.45.

Consider DLKDDGNMMKVLRNHQNWVYSCAF [G14N], for which the protein stability index was 1.26.

As for DLKDDGNMMKVLRPHQNWVYSCAF [G14P], the protein stability index amounted to 1.91.

On to DLKDDGNMMKVLRKHQNWVYSCAF [G14K], for which the protein stability index was determined as 2.23.

With DLKDDGNMMKVLRAHQNWVYSCAF [G14A], the protein stability index was 1.33.

As to DLKDDGNMMKVLRHHQNWVYSCAF [G14H], the protein stability index was 1.81.

With DLKDDGNMMKVLRWHQNWVYSCAF [G14W], the protein stability index is 1.87.

Take DLKDDGNMMKVLRRHQNWVYSCAF [G14R]: the protein stability index worked out at 1.29.

On to DLKDDGNMMKVLRCHQNWVYSCAF [G14C], for which the protein stability index is 2.43.

DLKDDGNMMKVLRSHQNWVYSCAF [G14S]: the protein stability index was found to be 2.

As for DLKDDGNMMTVLRGHQNWVYSCAF [K10T], the protein stability index came out at 1.5.

Take DLKDDGNMMIVLRGHQNWVYSCAF [K10I]: the protein stability index was 2.34.

For DLKDDGNMMQVLRGHQNWVYSCAF [K10Q], the protein stability index was found to be 2.02.

DLKDDGNMMDVLRGHQNWVYSCAF [K10D]: the protein stability index was 1.72.

Regarding DLKDDGNMMLVLRGHQNWVYSCAF [K10L], the protein stability index amounted to 2.53.

As to DLKDDGNMMPVLRGHQNWVYSCAF [K10P], the protein stability index is 2.27.

On to DLKDDGNMMYVLRGHQNWVYSCAF [K10Y], for which the protein stability index turned out to be 2.78.

In the case of DLKDDGNMMRVLRGHQNWVYSCAF [K10R], the protein stability index was 2.4.

As for DLKDDGNMMCVLRGHQNWVYSCAF [K10C], the protein stability index is 2.19.

DLKDDGNMMMVLRGHQNWVYSCAF [K10M]: the protein stability index turned out to be 1.55.

Consider DLKDDGNMMNVLRGHQNWVYSCAF [K10N], for which the protein stability index amounted to 1.31.

For DLKDDGNMMHVLRGHQNWVYSCAF [K10H], the protein stability index is 1.96.

In the case of DLKDDGNMMSVLRGHQNWVYSCAF [K10S], the protein stability index stood at 1.96.

Turning to DLKDDGNMMFVLRGHQNWVYSCAF [K10F], the protein stability index was 4.7.

Regarding DLKDDGNMMVVLRGHQNWVYSCAF [K10V], the protein stability index was determined as 2.1.

For DLKDDGNMMAVLRGHQNWVYSCAF [K10A], the protein stability index is 2.38.

Regarding DLKDDGNMMEVLRGHQNWVYSCAF [K10E], the protein stability index stood at 1.49.

On to DLKPDGNMMKVLRGHQNWVYSCAF [D4P], for which the protein stability index was 2.28.

Consider DLKYDGNMMKVLRGHQNWVYSCAF [D4Y], for which the protein stability index is 2.28.

As for DLKKDGNMMKVLRGHQNWVYSCAF [D4K], the protein stability index was 2.29.

On to DLKRDGNMMKVLRGHQNWVYSCAF [D4R], for which the protein stability index came to 1.59.

Regarding DLKQDGNMMKVLRGHQNWVYSCAF [D4Q], the protein stability index was found to be 2.63.

As to DLKSDGNMMKVLRGHQNWVYSCAF [D4S], the protein stability index amounted to 2.42.

Consider DLKMDGNMMKVLRGHQNWVYSCAF [D4M], for which the protein stability index was found to be 2.4.

Consider DLKIDGNMMKVLRGHQNWVYSCAF [D4I], for which the protein stability index amounted to 2.67.

In the case of DLKLDGNMMKVLRGHQNWVYSCAF [D4L], the protein stability index was 3.75.

As for DLKWDGNMMKVLRGHQNWVYSCAF [D4W], the protein stability index amounted to 2.2.

DLKNDGNMMKVLRGHQNWVYSCAF [D4N]: the protein stability index worked out at 3.38.

Take DLKTDGNMMKVLRGHQNWVYSCAF [D4T]: the protein stability index is 1.98.

As for DLKDDGNMMKVLRGGQNWVYSCAF [H15G], the protein stability index amounted to 4.54.

In the case of DLKDDGNMMKVLRGKQNWVYSCAF [H15K], the protein stability index was 2.24.

With DLKDDGNMMKVLRGQQNWVYSCAF [H15Q], the protein stability index was determined as 1.5.

On to DLKDDGNMMKVLRGSQNWVYSCAF [H15S], for which the protein stability index came out at 1.88.

For the variant DLKDDGNMMKVLRGNQNWVYSCAF [H15N], the protein stability index was 2.81.

Turning to DLKDDGNMMKVLRGDQNWVYSCAF [H15D], the protein stability index is 1.49.

Consider DLKDDGNMMKVLRGMQNWVYSCAF [H15M], for which the protein stability index was found to be 1.46.

Regarding DLKDDGNMMKVLRGPQNWVYSCAF [H15P], the protein stability index is 2.65.

As for DLKDDGNMMKVLRGFQNWVYSCAF [H15F], the protein stability index is 2.4.

Regarding DLKDDGNMMKVLRGEQNWVYSCAF [H15E], the protein stability index was 2.75.

Take DLKDDGNMMKVLRGIQNWVYSCAF [H15I]: the protein stability index was determined as 1.96.

Turning to DLKDDGNMMKVLRGAQNWVYSCAF [H15A], the protein stability index came to 2.26.

Consider DLKDDGNMMKVLRGWQNWVYSCAF [H15W], for which the protein stability index stood at 1.94.

As to DLKDDGNMMKVLRGLQNWVYSCAF [H15L], the protein stability index came out at 1.78.

In the case of DLKDDGNMMKVLRGRQNWVYSCAF [H15R], the protein stability index stood at 1.91.

On to DLKDDGNMMKVLRGTQNWVYSCAF [H15T], for which the protein stability index came to 1.92.

For the variant DLKDDGNMMKVLQGHQNWVYSCAF [R13Q], the protein stability index came to 2.45.
